According to patent US6380373B1, “Steroid receptor coactivator compositions and methods of use” (Baylor College of Medicine, priority 1995, dated 2002):

What was measured:
[1] = biological target: T1, E2F (Homo sapiens, UniProt Q01094); assay: CAT reporter assay E2F/E2F-tk-CAT in HeLa cells; assay type: cell-based
T1 construct: expressed in transfected cells; host or cells: HeLa
Protocol: (§1) Lipofectin (GibcoBRL) was selected for transfection of Hela cells.
(§2) The CAT activity of the reporter was determined.

[2] = system: CREB; assay: CAT reporter assay CREB/CRE-tk-CAT in HeLa cells, with and without forskolin; assay type: cell-based; conditions: without and with 1 μM forskolin
Protocol: as §1, §2

[3] = biological target: T2, TR (Homo sapiens, UniProt P10828); assay: CAT reporter assay TR/DR4-tk-CAT in HeLa cells; assay type: cell-based; design: expressed in transfected cells; conditions: 3 μg SRC-1, Triac 2×10^−8 M
T2 sequence (P10828 1-461): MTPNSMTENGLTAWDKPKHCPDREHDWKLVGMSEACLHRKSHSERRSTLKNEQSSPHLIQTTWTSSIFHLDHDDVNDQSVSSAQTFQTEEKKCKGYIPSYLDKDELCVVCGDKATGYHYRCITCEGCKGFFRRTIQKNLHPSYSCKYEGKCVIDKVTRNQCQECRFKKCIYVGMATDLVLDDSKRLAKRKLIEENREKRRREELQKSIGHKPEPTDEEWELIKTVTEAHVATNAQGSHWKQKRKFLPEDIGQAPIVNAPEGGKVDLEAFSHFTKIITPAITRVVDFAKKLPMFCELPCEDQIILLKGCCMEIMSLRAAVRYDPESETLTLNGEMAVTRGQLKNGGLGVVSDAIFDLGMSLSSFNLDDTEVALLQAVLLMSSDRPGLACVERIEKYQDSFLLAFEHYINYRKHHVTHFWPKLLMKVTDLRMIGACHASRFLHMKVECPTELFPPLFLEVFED
Protocol: (§3) Biol. 13, 6501-6508), Sp1 and Sp1-tk-CAT (Courey, A. J. and Tjian, R. (1988), Cell 55, 887-898), CREB and CRE-tk-CAT (Chrivia, J. C. et al., (1993), Nature 365, 855) and GAL4VP16 and 17mer-tk-CAT (Baniahmad, A. et al., (1992), EMBO J. 11, 1015-1023) have been previously described and the above references are incorporated herein by reference in their entirety, including any drawings.
as §1
(§4) HeLa cells were cotransfected with 0.5 μg of cDNAs encoding various steroid receptors indicated and 5 μg of their cognates HREs containing reporters, including PR/PRE2-TATA-CAT, ER/ERE2-TATA-CAT, GR/PRE2-TATA-CAT, TR-/DR4-tk-CAT and RXR/DR1-tk-CAT, along with 3 μg of SRC-1 or empty expression vector. Cells were then treated with their corresponding ligands (PR:R5020, ER:estradiol, GR:dexamethasone, TR:Triac, RXR:9-cis retinoic acid) at a concentration of 2×10^−8M. The CAT activity of the reporter was determined using 14 μg of protein extract.

[4] = biological target: T3, RXR (Mus musculus, UniProt P28704); assay: CAT reporter assay RXR/DR1-tk-CAT in HeLa cells; assay type: cell-based; conditions: 3 μg SRC-1, 9-cis retinoic acid 2×10^−8 M
T3 construct: expressed in transfected cells; host or cells: HeLa
T3 sequence (P28704 1-520): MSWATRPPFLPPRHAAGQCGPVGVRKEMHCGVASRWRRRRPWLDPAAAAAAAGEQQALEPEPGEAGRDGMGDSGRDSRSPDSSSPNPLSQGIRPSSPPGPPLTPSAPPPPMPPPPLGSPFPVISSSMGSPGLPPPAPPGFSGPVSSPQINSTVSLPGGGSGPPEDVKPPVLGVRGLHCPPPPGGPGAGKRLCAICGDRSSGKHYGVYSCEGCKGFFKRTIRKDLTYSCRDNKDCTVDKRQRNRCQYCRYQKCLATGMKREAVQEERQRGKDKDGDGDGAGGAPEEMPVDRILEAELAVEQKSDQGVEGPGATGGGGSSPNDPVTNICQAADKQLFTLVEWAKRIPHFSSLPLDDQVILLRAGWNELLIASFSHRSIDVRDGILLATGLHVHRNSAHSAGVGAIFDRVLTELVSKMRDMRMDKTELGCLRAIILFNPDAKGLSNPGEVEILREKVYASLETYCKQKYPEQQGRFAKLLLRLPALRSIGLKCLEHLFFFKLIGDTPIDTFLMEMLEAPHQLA
Protocol: as §3, §1, §4

[5] = biological target: human progesterone receptor B isoform (hPRB) (human) (UniProt P06401); assay: cell-based or functional assay
[6] = biological target: T4, ER (Homo sapiens, UniProt P03372); assay: CAT reporter assay ER/ERE2-TATA-CAT in HeLa cells; assay type: cell-based; conditions: 3 μg SRC-1, estradiol 2×10^−8 M
T4 construct: expressed in transfected cells; host or cells: HeLa
T4 sequence (P03372 1-595): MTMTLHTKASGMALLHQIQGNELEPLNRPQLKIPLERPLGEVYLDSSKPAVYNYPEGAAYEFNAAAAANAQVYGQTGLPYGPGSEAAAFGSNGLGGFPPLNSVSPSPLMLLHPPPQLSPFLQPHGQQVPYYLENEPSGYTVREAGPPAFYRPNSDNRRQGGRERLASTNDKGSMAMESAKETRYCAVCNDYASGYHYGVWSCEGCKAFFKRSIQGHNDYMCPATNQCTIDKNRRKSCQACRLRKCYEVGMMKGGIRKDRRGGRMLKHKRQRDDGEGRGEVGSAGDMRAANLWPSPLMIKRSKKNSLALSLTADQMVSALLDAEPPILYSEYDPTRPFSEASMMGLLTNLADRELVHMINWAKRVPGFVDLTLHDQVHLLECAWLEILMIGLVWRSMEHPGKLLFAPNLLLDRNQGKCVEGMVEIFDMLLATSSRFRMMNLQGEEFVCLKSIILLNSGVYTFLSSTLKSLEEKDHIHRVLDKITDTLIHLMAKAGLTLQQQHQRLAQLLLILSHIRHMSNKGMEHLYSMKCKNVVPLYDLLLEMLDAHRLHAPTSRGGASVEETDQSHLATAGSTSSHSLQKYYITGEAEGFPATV
Protocol: as §3, §1, §4

T1 sequence (Q01094 whole entry): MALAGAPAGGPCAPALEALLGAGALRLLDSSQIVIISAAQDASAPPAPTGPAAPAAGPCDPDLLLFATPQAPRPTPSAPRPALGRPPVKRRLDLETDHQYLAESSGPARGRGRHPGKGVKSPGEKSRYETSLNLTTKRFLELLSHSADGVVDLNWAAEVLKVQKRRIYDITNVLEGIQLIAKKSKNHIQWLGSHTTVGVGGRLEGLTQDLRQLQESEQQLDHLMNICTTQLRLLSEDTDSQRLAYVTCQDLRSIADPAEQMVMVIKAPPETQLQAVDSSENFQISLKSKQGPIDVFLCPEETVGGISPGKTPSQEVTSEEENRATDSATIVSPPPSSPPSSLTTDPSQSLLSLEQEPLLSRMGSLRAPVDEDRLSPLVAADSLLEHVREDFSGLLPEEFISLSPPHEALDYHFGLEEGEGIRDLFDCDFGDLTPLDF

B1: steroid receptor coactivator-one (SRC-1), full-length (protein)
chain: MSIPRVNPSVNPSISPAHGVARSSTLPPSNSNMVSTRINRQQSSDLHSSSHSNSSNSQGSFGCSPGSQIVANVALNKGQASSQSSKPSLNLNNPPMEGTGISLAQFMSPRRQVTSGLATRPRMPNNSFPPNISTLSSPVGMTSSACNNNNRSYSNIPVTSLQGMNEGPNNSVGFSASSPVLRQMSSQNSPSRLNIQPAKAESKDNKEIASTLNEMIQSDNSSSDGKPLDSGLLHNNDRLSDGDSKYSQTSHKLVQLLTTTAEQQLRHADIDTSCKDVLSCTGTSNSASANSSGGSCPSSHSSLTARHKILHRLLQEGSPSDITTLSVEPDKKDSASTSVSVTGQVQGNSSIKLELDASKKKESKDHQLLRYLLDKDEKDLRSTPNLSLDDVKVKVEKKEQMDPCNTNPTPMTKATPEEIKLEAQSQFTADLDQFDQLLPTLEKAAQLPGLCETDRMDGAVTSVTIKSEILPASLQSATARPTSRLNRLPELELEAIDNQFGQPGTGDQIPWTNNTVTAINQSKSEDQCISSQLDELLCPPTTVEGRNDEKALLEQLVSFLSGKDETELAELDRALGIDKLVQGGGLDVLSERFPPQQATPPLIMEERPNLYSQPYSSPFPTANLPSPFQGMVRQKPSLGTMPVQVTPPRGAFSPGMGMQPRQTLNRPPAAPNQLRLQLQQRLQGQQQLIHQNRQAILNQFAATAPVGINMRSGMQQQITPQPPLNAQMLAQRQRELYSQQHRQRQLIQQQRAMLMRQQSFGNNLPPSSGLPVQTGNPRLPQGAPQQFPYPPNYGTNPGTPPASTSPFSQLAANPEASLANRNSMVSRGMTGNIGGQFGTGINPQMQQNVFQYPGAGMVPQGEANFAPSLSPGSSMVPMPIPPPQSSLLQQTPPASGYQSPDMKAWQQGAIGNNNVFSQAVQNQPTPAQPGVYNNMSITVSMAGGNTNVQNMNPMMAQMQMSSLQMPGMNTVCPEQINDPALRHTGLYCNQLSSTDLLKTEADGTQQVQQVQVFADVQCTVNLVGGDPYLNQPGPLGTQKPTSGPQTPQAQQKSLLQQLLTE
With B1 the “effect on E2F transcriptional activity” value [1] was “did not alter”, the “effect on basal and forskolin-stimulated transcriptional activities of CREB” value [2] was “did not affect” and the “effect on TR transcriptional activity” value [3] was “enhance”. For the same molecule, the “effect on RXR transcriptional activity” value [4] was “enhance”, the fold induction of PRE2-TATA-CAT reporter activity over the hormone-induced receptor activity (HeLa cells, R5020) [5] was 14 fold and the reversal of hER squelching of hPR-mediated CAT reporter activity (HeLa cells) [5] was 16 fold. The stimulation of PR transactivation at the highest concentration of SRC-1 (2 µg), CAT reporter [5] was 5 fold and the “effect on ER transcriptional activity” value [6] was “enhance”.
